Where no end group is shown, it is not given here. [ ]: non-standard residue; d: D form.
T1: FPR1 (UniProt P21462 1-350)
T1 sequence (looked up): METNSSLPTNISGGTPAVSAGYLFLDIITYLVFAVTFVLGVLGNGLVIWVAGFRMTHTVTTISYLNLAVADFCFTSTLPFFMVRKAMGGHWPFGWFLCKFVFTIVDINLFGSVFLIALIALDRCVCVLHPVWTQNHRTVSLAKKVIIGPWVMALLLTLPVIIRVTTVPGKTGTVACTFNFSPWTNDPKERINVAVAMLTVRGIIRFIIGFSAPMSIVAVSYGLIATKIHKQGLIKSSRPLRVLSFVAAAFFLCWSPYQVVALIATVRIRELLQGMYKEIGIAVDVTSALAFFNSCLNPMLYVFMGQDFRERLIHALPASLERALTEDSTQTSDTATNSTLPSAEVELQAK

T2: FPRL1 (UniProt P25090 1-351)
T2 sequence (looked up): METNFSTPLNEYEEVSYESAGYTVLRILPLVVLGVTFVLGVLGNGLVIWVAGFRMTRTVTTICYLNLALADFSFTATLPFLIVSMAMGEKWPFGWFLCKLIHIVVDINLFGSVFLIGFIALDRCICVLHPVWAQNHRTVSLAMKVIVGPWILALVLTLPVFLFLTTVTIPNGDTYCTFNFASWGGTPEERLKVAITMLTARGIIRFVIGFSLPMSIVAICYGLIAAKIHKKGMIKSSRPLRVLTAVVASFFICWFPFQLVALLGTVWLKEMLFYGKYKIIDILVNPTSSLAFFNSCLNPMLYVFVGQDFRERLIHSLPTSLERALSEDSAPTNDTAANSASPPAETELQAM


Assays:
Assay in all cases: cell-based or functional assay
[1] = target: F2RL1 (UniProt P55085 26-397, limits assumed)
[2] = target: T1, FPR1
[3] = target: T2, FPRL1

EC50 (RC50), arrestin, agonist mode [1]	EC80, arrestin, agonist mode [1]	EC80, arrestin, agonist mode [2]	EC80, arrestin, agonist mode [3]	Binder
552 nM	2130 nM			SLIGRL-NH2 [SLIGRL-NH2]
		25.2 nM	11.8 nM	WKYMV[dM]-NH2 [WKYMVm-NH2]

From patent US20260184748A1 (University of Pennsylvania, published 2026)
